Data reported in the supplement of paper PMC9170038.

System: K4 kissing-loop RNA reporter
Assay: apparent KD of K4 kissing-loop reporter; higher = weaker reporter binding
Settings: Eterna round: R107
Method: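 RNA-MaP round R107: designed RNA switches with theophylline, tryptophan, arginine or FMN aptamers are transcribed on-chip within common flanks. They are titrated with a labelled K4 kissing-loop RNA reporter in RNA-MaP buffer (100 mM Tris pH 7.5, 80 mM KCl, 4 mM MgCl2), without ligand or with the indicated ligand. Median apparent KD per design.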

[1] = input ligand: theophylline 20 uM
[2] = input ligand: tryptophan 2.4 mM
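Note: bound reporter read as fluorescence of individual clusters on recovered sequencing chips by microscopy, with normalized cluster intensities fitted with a binding model.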

Sequence	apparent KD of K4 kissing-loop reporter (input ligand: FMN 200 uM) [nM]	apparent KD of K4 kissing-loop reporter (input ligand: arginine 13.2 mM) [nM]	apparent KD of K4 kissing-loop reporter (input ligand: none) [nM]	apparent KD of K4 kissing-loop reporter [1] [nM]	apparent KD of K4 kissing-loop reporter [2] [nM]
GCGCGUCAUGGCGGCGGUGACUACGCCGAUACCAGCCGGGAAACCGGCCCUUGGCAGCGGCGCGCCGGAGUGAUGUUCCGACAGA [#2 Exclusion - Theophylline A Attempt #4 (HarryS)]	226	275	275	370	214
GCGCGUGUUAAAGGAUAUAGCAGGUGAUACAAGAAAGUGAGUGAUGUUUAUGUAGAUGAUGAUAUGUUAGAAGGUUAACAAGCGC [abcdefghijklmnopq]	778	606	847	739	605
GCGGGCGGCUGAAGGAGCGGGCGGGCCCGAGUGAUGUUCGGGUGGGCCGUGAGGCCCGGAGCCCAGGUAGGUCGCGGUUCCGUCC [#2 Same State - Arginine B Attempt #19 (HarryS)]	162	113	126	170	147
GCGGGCGGCUGAAGGAGCGGGCGGGCCCGAGUGAUGUUCGGGUGGGCUGUGAGGCCCGGAGCCCAGGUAGGUCGCGGUUCCGCCC [#2 Same State - Arginine B Attempt #26 (HarryS)]	157	107	167	146	133
GCGUGCAAGUCAUGAUGCCCUAUCAGGACUAAGGAUAUAGCGUGACCUAGAAGGUAGCUAGUGAUGUUGGCUGACAUGCUACUGC [theeternabot_exclusion_KL_FMN_A_49]	482	227	367	376	376
GCGUUAGUACUCGAUACCAGACCUCUAGUAGUGAUGUUGCUUGGCGAAGGCCUCGAACGAGUCCCUUGGCAGCGAGGAAAGAGGA [theeternabot_sameState_KL_Theo_B_4]	506	387	584	376	450
GCGUUCAUGGCAGGAUAUAGGUAAAGGAGUGAUGUUCCUUAUGUUGCAUUUACUUAAUCCAACUCCCUAGAAGGGCCAUGAACGC	123	140	151	139	146
GCUACUGCCUUAGGAUAUAGUUGAGUGAUGUUCAAGCAUAUGCAUGGGAAAACCAUGCAUAUGUCCCUAGAAGGGAGGCAGUAGC	800	627	859	630	740
GCUAUGGUAGGAAGGAGCGCGGACGAAAUAUAUCGAGUGAUGUUCGAAUAAUUAAAUAAAACGCAGGUAGGUCGCCUACUAUAGC [Arginine B K4 25]	116	114	110	120	97.6
GCUAUGGUAGGAAGGAGCGCGGACGAUAUUUAUCGAGUGAUGUUCGAAUAAUUAAAUAAAACGCAGGUAGGUCGCCUACUAUAGC [Arginine B K4 27]	108	113	99.9	102	94
GCUAUGGUAGGAAGGAGCGCUACUUUGUUUUUACGAGUGAUGUUCGGAAGCAGAGUGUUAAAGCAGGUAGGUCGCCUACUAUAGC [Arginine B K4 20]	171	154	171	181	197
GCUAUGGUAGGAAGGAGCGCUUAAUUACUAAUAAGAGUGAUGUUCGAUAGUAGGUAUUUAUAGCAGGUAGGUCGCCUACUAUAGC [KL-Arg B23]	200	171	176	244	174
GCUAUGGUUGGAAGGAGCGUUGAAUUGUUAGUAAGAGUGAUGUUCGAUAGUGGACAGUUGUAGCAGGUAGGUCGCCAACUAUAGC [KL-Arg B28]	329	570	277	560	520
GGAACGUUGCGGACUAUCGCAUAAAGUCACCGAGGACCGGUACGGCCGCCACUCGCCAGUGAUGUUGGCGUGUUUGCGCGCUGUA [Isteri]	99.6	91.1	101	83.6	117
GGAAGGAAGGGAAGGAGCGCGCAGGCAGUGAUGUUGCCAAACAAAACAAACAAAACAAAAGCGCAGGUAGGUCGCCCGAAGGACG	67.8	92.8	89.7	126	62.9
GGACCGCCAGUGAUGUUGGAGAUAAACUCCAAGGAUAUGACGAAAGUCAGAAGGUGGUAAUAAGACGUCAAAGACGUCAGGUCCA [FmnA 21 #SwitchBubble #K4Early]	970	206	361	301	266
GGAGAGGUCUUGUUUGGAUGUGUUUAAUGGCGAGGACCGGUACGGCCGCCACUCGGGUGAUGUUAGUGAUGUUGAUGUUGUGAUG ['oo'mullin]	137	131	125	219	116
GGAGGAGAAUAUGAUACCAGCAGAGAGAGAGAGGAAGUAUAGUGAUGUUAUAUGAGAGAAUGCCCUUGGCAGCAUAAGAAGAAGG [SSTheophylB.A]	150	105	136	123	105
GGAGGGAUCUCGGCCGCCACUCAUAAGAAAUGAACCUAAGAAAUAUAGUGAUGUUAUAUAAAGAAGAGGACCGGGAGAAAGGAGG [ExTryptoB.A]	148	171	197	555	171
GGAGGGAUCUCGGCCGCCACUCAUAAGAAAUGAACCUCAGAAAUAUAGUGAUGUUAUAUAAAGAAGAGGACCGGGAGAAAGGAGG [ExTryptoB.B]	167	137	161	158	168
GGAGUGAUGUUCCAUUUUUAAAUCUCCGAUACCAGUAUGGAAACAUACCCUUGGCAGCGGUAAACCGCAGAUUAGGAAACUAGUC [Theophylline A K4 1]	496	682	615	501	561
GGAUAACAGGCAGGAUAUGCUUAGUAGUAAGGCCAUAUAUACGUAUAGAGUGAUGUUUUGUACAAGGCAGAAGGGCUAAAUCCAU [FMN B Excl V2 (+4G)]	536	240	421	393	254
GGAUAGGACAAAGGAUAUGGUAGUGAUGUUACCAAACUGGUUAAACAUGUCAGAAAACUGGCAUGACCAGAAGGUUGUCCUAUCG [FmnBX 27 A11+U75]	86.4	62.8	66.3	61.1	66.9
